Measured values: patent publication US20020076785
Entries after “also recorded” stand apart in the source; their conditions may differ.

Legend:
[1] = target: recombinant C. elegans Rho (UniProt Q22038)
[2] = target: recombinant C. elegans Rac (UniProt Q03206)
[3] = target: recombinant C. elegans Cdc42 (UniProt Q05062)
recombinant C. elegans Cdc42, sequence (Q05062 whole entry): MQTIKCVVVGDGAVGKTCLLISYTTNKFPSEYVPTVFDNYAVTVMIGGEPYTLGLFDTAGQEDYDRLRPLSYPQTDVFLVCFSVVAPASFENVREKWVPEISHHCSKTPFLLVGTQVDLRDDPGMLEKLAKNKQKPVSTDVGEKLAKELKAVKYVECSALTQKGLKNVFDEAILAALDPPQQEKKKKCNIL

recombinant C. elegans Rho, sequence (Q22038 whole entry): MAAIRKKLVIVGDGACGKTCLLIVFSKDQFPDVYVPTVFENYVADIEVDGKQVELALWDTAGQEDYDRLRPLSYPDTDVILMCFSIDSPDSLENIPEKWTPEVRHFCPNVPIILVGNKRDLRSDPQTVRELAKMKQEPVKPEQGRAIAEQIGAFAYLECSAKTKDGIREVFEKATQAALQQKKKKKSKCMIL

“GST-CYK-4-GAP (GST fused to the GAP domain of CYK-4, amino acids 407-681)” was tested, and the GTP hydrolysis [1] was “The GAP domain of CYK-4 promotes GTP hydrolysis by all three tested GTPases; also recorded: the CYK-4 GAP domain is more active towards Rac and Cdc42 than towards Rho”, the GTP hydrolysis [2] was “The GAP domain of CYK-4 promotes GTP hydrolysis by all three tested GTPases; also recorded: the CYK-4 GAP domain is more active towards Rac and Cdc42 than towards Rho” and the GTP hydrolysis [3] was “The GAP domain of CYK-4 promotes GTP hydrolysis by all three tested GTPases; also recorded: the CYK-4 GAP domain is more active towards Rac and Cdc42 than towards Rho”.
